Measurements from article PMC4615104 (Cell Cycle, 2015).
One block for each binder: values may come before it.

Target: recombinant hMDM2 (human, UniProt Q00987 1-491)
Assay: ELISA

Sequence of recombinant hMDM2 (Q00987 whole entry): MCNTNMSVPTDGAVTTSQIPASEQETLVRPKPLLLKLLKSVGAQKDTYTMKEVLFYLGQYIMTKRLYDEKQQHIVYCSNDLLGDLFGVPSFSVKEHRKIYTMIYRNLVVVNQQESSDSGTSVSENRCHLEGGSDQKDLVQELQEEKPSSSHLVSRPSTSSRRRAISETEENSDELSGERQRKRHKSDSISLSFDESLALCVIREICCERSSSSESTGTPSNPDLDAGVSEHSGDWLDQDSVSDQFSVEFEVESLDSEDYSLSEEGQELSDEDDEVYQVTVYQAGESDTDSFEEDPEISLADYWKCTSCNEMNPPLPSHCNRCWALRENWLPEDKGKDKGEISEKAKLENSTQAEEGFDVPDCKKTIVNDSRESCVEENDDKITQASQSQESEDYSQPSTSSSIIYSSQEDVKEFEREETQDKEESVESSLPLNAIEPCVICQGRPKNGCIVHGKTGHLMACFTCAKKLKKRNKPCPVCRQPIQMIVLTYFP

- binding result: binds
B1: recombinant hMDMX^FL (natural protein)
chain: MTSFSTSAQCSTSDSACRISPGQINQVRPKLPLLKILHAAGAQGEMFTVKEVMHYLGQYIMVKQLYDQQEQHMVYCGGDLLGELLGRQSFSVKDPSPLYDMLRKNLVTLATATTDAAQTLALAQDHSMDIPSQDQLKQSAEESSTSRKRTTEDDIPTLPTSEHKCIHSREDEDLIENLAQDETSRLDLGFEEWDVAGLPWWFLGNLRSNYTPRSNGSTDLQTNQDVGTAIVSDTTDDLWFLNESVSEQLGVGIKVEAADTEQTSEEVGKVSDKKVIEVGKNDDLEDSKSLSDDTDVEVTSEDEWQCTECKKFNSPSKRYCFRCWALRKDWYSDCSKLTHSLSTSDITAIPEKENEGNDVPDCRRTISAPVVRPKDAYIKKENSKLFDPCNSVEFLDLAHSSESQETISSMGEQLDNLSEQRTDTENMEDCQNLLKPCSLCEKRPRDGNIIHGRTGHLVTCFHCARRLKKAGASCPICKKEIQLVIKVFIA

- binding result: binds
B2: recombinant hMDMX^p60 (natural protein)
chain: MDIPSQDQLKQSAEESSTSRKRTTEDDIPTLPTSEHKCIHSREDEDLIENLAQDETSRLDLGFEEWDVAGLPWWFLGNLRSNYTPRSNGSTDLQTNQDVGTAIVSDTTDDLWFLNESVSEQLGVGIKVEAADTEQTSEEVGKVSDKKVIEVGKNDDLEDSKSLSDDTDVEVTSEDEWQCTECKKFNSPSKRYCFRCWALRKDWYSDCSKLTHSLSTSDITAIPEKENEGNDVPDCRRTISAPVVRPKDAYIKKENSKLFDPCNSVEFLDLAHSSESQETISSMGEQLDNLSEQRTDTENMEDCQNLLKPCSLCEKRPRDGNIIHGRTGHLVTCFHCARRLKKAGASCPICKKEIQLVIKVFIA
